This note sets out measurements from patent US20230355720A1, “PHARMACEUTICAL COMPOSITION FOR PREVENTING OR TREATING BONE DISEASES, COMPRISING TRIPLE AGONIST OR CONJUGATE THEREOF HAVING ACTIVITY WITH RESPECT TO ALL OF GLUCAGON, GLP-1 AND GLP RECEPTORS” (HANMI PHARM. CO., LTD., priority 2020, published 2023).

Bridge positions count the residues as written; N and C are the ends. Square brackets hold non-standard residues; d marks the D form. Ends that are not written are not given here. * marks the point of attachment. Acetyl(2-(4-imidazolyl)) = O=C(Cc1c[nH]cn1)*; Aib = CC(C)(N)C(=O)O

Experiment in all cases: cell-based or functional assay
The target of assay [1] is human GCG receptor (human, UniProt P47871 26-477).
The target in assay [2] is T1, human GIP receptor (human, UniProt P48546 22-466).
T1 sequence (looked up): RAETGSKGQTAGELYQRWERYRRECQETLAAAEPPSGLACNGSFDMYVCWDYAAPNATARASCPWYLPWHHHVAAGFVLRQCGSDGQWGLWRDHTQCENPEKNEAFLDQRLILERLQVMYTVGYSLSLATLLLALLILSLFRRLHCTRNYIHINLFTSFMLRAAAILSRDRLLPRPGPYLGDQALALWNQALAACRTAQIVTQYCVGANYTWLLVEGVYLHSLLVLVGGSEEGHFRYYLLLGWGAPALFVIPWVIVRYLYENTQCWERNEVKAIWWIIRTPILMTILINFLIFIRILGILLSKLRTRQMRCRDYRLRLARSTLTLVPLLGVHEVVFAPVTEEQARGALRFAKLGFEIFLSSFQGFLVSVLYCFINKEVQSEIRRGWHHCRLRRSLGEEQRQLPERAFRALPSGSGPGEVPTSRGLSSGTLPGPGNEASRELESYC

For assay [3], the target named is human GLP-1 receptor (human, UniProt P43220 24-463).

human GCG receptor, sequence (P47871 26-477): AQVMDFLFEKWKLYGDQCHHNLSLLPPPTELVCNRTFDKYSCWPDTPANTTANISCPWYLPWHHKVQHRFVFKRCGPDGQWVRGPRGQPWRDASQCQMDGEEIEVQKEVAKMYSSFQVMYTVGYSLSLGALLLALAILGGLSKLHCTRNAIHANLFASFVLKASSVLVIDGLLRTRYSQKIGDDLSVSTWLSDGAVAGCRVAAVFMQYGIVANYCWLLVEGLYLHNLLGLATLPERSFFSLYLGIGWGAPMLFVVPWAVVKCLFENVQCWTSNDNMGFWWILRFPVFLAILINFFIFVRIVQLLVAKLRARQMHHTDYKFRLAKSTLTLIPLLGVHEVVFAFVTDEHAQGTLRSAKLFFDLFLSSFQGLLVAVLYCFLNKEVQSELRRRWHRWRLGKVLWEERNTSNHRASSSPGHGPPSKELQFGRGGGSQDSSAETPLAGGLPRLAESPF

Regarding [Acetyl(2-(4-imidazolyl))][Aib]QGTFTSDYSIAMDEIHQKDFVNWLLAQKC (bridge 16-20; not fully specified) [triple agonist of SEQ ID NO: 92], the “In vitro activity (%) compared with native peptide, vs Glucagon” value (“In vitro activity (%) … vs Glucagon” for short) in assay [1] is less than 0.1%. For the same molecule, the “In vitro activity (%) compared with native peptide, vs GIP” value (shortened to “In vitro activity (%) … vs GIP”) in assay [2] was 0.4%. Also, in assay [3], the “In vitro activity (%) compared with native peptide, vs GLP-1” value (shortened to “In vitro activity (%) … vs GLP-1”) stood at 0.8%.

B1: triple agonist of SEQ ID NO: 94 (peptide)
peptide: {Acetyl(2-(4-imidazolyl))}-[Aib]QGTFTSDYSIAMDEIHQKDFVNWLLNTKC
modifications: bridge 15-19; numbers in words are those of the source; also: ring between positions 16 and 20, type not given here
Take B1: the “In vitro activity (%) … vs Glucagon” value in assay [1] is less than 0.1%. In addition, in assay [2], the “In vitro activity (%) … vs GIP” value was less than 0.1%. Moreover, the “In vitro activity (%) … vs GLP-1” value in assay [3] was 0.5%.

With Y[Aib]QGTFTSDYSKYLDEKRAKEFVQWLLDHCPSSGQPPPS (bridge 16-20) [triple agonist of SEQ ID NO: 96], the “In vitro activity (%) … vs Glucagon” value in assay [1] came to 195%. Besides, the “In vitro activity (%) … vs GIP” value in assay [2] was 5.2%. In addition, the “In vitro activity (%) … vs GLP-1” value in assay [3] was determined as 34.4%.

B2: triple agonist of SEQ ID NO: 86 (peptide)
peptide: {Acetyl(2-(4-imidazolyl))}-[Aib]QGTFTSDYSKYLDEKRQKEFVNWLLAQC
modifications: bridge 15-19; numbers in words are those of the source; also: ring between positions 16 and 20, type not given here
B2: in assay [1], the “In vitro activity (%) … vs Glucagon” value is 0.4%. Besides, in assay [2], the “In vitro activity (%) … vs GIP” value amounted to 0.2%. For the same molecule, the “In vitro activity (%) … vs GLP-1” value in assay [3] was 28.4%.

Y[Aib]QGTFTSDYSKYLDEKRAKEFVQWLLCHHPSSGQPPPS (bridge 16-20) [triple agonist of SEQ ID NO: 95]: in assay [1], the “In vitro activity (%) … vs Glucagon” value was determined as 0.4%. For the same molecule, the “In vitro activity (%) … vs GIP” value in assay [2] was less than 0.1%. Moreover, in assay [3], the “In vitro activity (%) … vs GLP-1” value is 2.1%.

Take [Acetyl(2-(4-imidazolyl))][Aib]EGTFTSDYSIAMDEIHQKDFVNWLLAQKC (bridge 16-20; not fully specified) [triple agonist of SEQ ID NO: 90]: in assay [1], the “In vitro activity (%) … vs Glucagon” value was less than 0.1%. Further, the “In vitro activity (%) … vs GIP” value in assay [2] is less than 0.1%. Moreover, the “In vitro activity (%) … vs GLP-1” value in assay [3] was 7.4%.

B3: triple agonist of SEQ ID NO: 91 (peptide)
peptide: {Acetyl(2-(4-imidazolyl))}-[Aib]EGTFTSDYSIAMDEIHQKDFVDWLLAEKC
modifications: bridge 15-19; numbers in words are those of the source; also: ring between positions 16 and 20, type not given here
Regarding B3, in assay [1], the “In vitro activity (%) … vs Glucagon” value came out at 16.8%. In addition, the “In vitro activity (%) … vs GIP” value in assay [2] stood at 0.3%. In addition, in assay [3], the “In vitro activity (%) … vs GLP-1” value was determined as 31.9%.

B4: triple agonist of SEQ ID NO: 84 (peptide)
peptide: {Acetyl(2-(4-imidazolyl))}-[Aib]EGTFTSDYSIAMDEIHQKDFVDWLLAEC
modifications: bridge 15-19; numbers in words are those of the source; also: ring between positions 16 and 20, type not given here
With B4, the “In vitro activity (%) … vs Glucagon” value in assay [1] is less than 0.1%. Moreover, the “In vitro activity (%) … vs GIP” value in assay [2] was less than 0.1%. The “In vitro activity (%) … vs GLP-1” value in assay [3] stood at 4.2%.

B5: triple agonist of SEQ ID NO: 87 (peptide)
peptide: {Acetyl(2-(4-imidazolyl))}-[Aib]QGTFTSDYSIAMDEIHQKDFVNWLLNTC
modifications: bridge 15-19; numbers in words are those of the source; also: ring between positions 16 and 20, type not given here
On to B5, for which, in assay [1], the “In vitro activity (%) … vs Glucagon” value was less than 0.1%. Moreover, the “In vitro activity (%) … vs GIP” value in assay [2] is less than 0.1%. In addition, the “In vitro activity (%) … vs GLP-1” value in assay [3] was found to be 0.9%.

With H[Aib]QGTFTSDVSKYLDGQAAQEFVAWLLAGGGPSSGAPPPSC (not fully specified) [triple agonist of SEQ ID NO: 10], in assay [1], the “In vitro activity (%) … vs Glucagon” value was less than 0.1%. The “In vitro activity (%) … vs GIP” value in assay [2] was less than 0.1%. The “In vitro activity (%) … vs GLP-1” value in assay [3] was 46%.

On to H[Aib]QGTFTSDVSKYLDGQAAQEFVAWLLAGC [triple agonist of SEQ ID NO: 9], for which the “In vitro activity (%) … vs Glucagon” value in assay [1] was determined as 0.13%. In assay [2], the “In vitro activity (%) … vs GIP” value was less than 0.1%. Besides, in assay [3], the “In vitro activity (%) … vs GLP-1” value stood at 32.1%.

B6: triple agonist of SEQ ID NO: 88 (peptide)
peptide: {Acetyl(2-(4-imidazolyl))}-[Aib]QGTFTSDYSKYLDEKRQKEFVQWLLNTKC
modifications: bridge 15-19; numbers in words are those of the source; also: ring between positions 16 and 20, type not given here
Turning to B6, in assay [1], the “In vitro activity (%) … vs Glucagon” value stood at 0.3%. Besides, in assay [2], the “In vitro activity (%) … vs GIP” value is less than 0.1%. Besides, the “In vitro activity (%) … vs GLP-1” value in assay [3] came out at 9.6%.

With [Acetyl(2-(4-imidazolyl))][Aib]QGTFTSDYSIAMDEIHQKDFVNWLLAQC (bridge 16-20; not fully specified) [triple agonist of SEQ ID NO: 85], in assay [1], the “In vitro activity (%) … vs Glucagon” value was less than 0.1%. Besides, the “In vitro activity (%) … vs GIP” value in assay [2] was 0.3%. The “In vitro activity (%) … vs GLP-1” value in assay [3] was determined as 4.3%.

B7: triple agonist of SEQ ID NO: 93 (peptide)
peptide: {Acetyl(2-(4-imidazolyl))}-[Aib]QGTFTSDYSKYLDEKRQKEFVNWLLAQKC
modifications: bridge 15-19; numbers in words are those of the source; also: ring between positions 16 and 20, type not given here
Regarding B7, the “In vitro activity (%) … vs Glucagon” value in assay [1] was 0.3%. For the same molecule, the “In vitro activity (%) … vs GIP” value in assay [2] turned out to be 0.7%. The “In vitro activity (%) … vs GLP-1” value in assay [3] came out at 5.7%.

B8: triple agonist of SEQ ID NO: 89 (peptide)
peptide: {Acetyl(2-(4-imidazolyl))}-[Aib]QGTFTSDYSKYLDEKRQKEFVQWLLDTKC
modifications: bridge 15-19; numbers in words are those of the source; also: ring between positions 16 and 20, type not given here
In the case of B8, the “In vitro activity (%) … vs Glucagon” value in assay [1] amounted to 0.7%. Further, the “In vitro activity (%) … vs GIP” value in assay [2] was less than 0.1%. Moreover, in assay [3], the “In vitro activity (%) … vs GLP-1” value was determined as 7.1%.

With Y[Aib]QGTFTSDYSKYLDEKRAKEFVQWLLDCHPSSGQPPPS (bridge 16-20) [triple agonist of SEQ ID NO: 97], in assay [1], the “In vitro activity (%) … vs Glucagon” value is 62.8%. In assay [2], the “In vitro activity (%) … vs GIP” value was 2.6%. The “In vitro activity (%) … vs GLP-1” value in assay [3] was 10.5%.
